These results are taken from patent US20260242478A1 (published 2026).

Where no end group is shown, it is not given here.

Experiment [1] addresses Anti-CD28 Fab (SEQ ID NOs: 696, 697). Kind of experiment: phage binding ELISA on captured anti-CD28 Fab; competitor: CD28 antigen preincubated in the wells. On the technique in general: In an ELISA, binding on a coated surface is turned into a signal by an enzyme label.
Target sequence in this assay (VH, as listed by the source, chain 1 of 2): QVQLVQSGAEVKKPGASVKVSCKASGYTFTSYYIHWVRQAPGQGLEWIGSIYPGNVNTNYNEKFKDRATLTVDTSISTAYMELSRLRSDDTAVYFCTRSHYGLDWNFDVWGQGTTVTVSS
Target sequence in this assay (VL, as listed by the source, chain 2 of 2): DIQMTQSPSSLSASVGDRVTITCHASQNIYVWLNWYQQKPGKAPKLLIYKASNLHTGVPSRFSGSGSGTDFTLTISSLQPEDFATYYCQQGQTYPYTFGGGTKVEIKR
Experiment [2] shares this target. Kind of experiment: phage binding ELISA; biotinylated anti-CD28 Fab on neutravidin plate, clonal phage supernatant, anti-M13 HRP detection.
Target sequence in this assay (VH, as listed by the source, chain 1 of 2): as the sequence (VH, as listed by the source, chain 1 of 2) above
Target sequence in this assay (VL, as listed by the source, chain 2 of 2): as the sequence (VL, as listed by the source, chain 2 of 2) above
The target in experiment [3] is T1, Anti-CD28 Fab (SEQ ID NOs: 696, 697).
T1 construct: Biotinylated and captured on neutravidin coated plates in the phage ELISA
Kind of experiment: phage ELISA; as above with CD28 antigen as competitor pre-incubated on the Fab coated wells.
T1 sequence (VH, as listed by the source, chain 1 of 2): as the sequence (VH, as listed by the source, chain 1 of 2) above
T1 sequence (VL, as listed by the source, chain 2 of 2): as the sequence (VL, as listed by the source, chain 2 of 2) above
Experimental: (§1) After panning, phage infected bacteria were plated out and colonies picked into 96 well blocks. Clonal phage was then amplified and separated from bacterial cells via centrifugation.
(§2) Clonal phage were harvested as crude supematants and screened via standard ELISAs. […] Prior to the addition of clonal phage, wells were incubated with blocking buffer and CD28 antigen or blocking buffer alone. Without washing or aspirating, clonal phage supematants were then added to the wells and incubated for a short time. Wells were then washed followed by detection of bound phage using a horse radish conjugated anti-M13 antibody. Clonal phage of interest were then sent for sequence analysis.

For experiment [4] the target is unchanged. Kind of experiment: phage ELISA; biotinylated anti-CD28 Fab on neutravidin plates, clonal phage supernatant, anti-M13 HRP detection.
Target sequence in this assay (VH, as listed by the source, chain 1 of 2): as the sequence (VH, as listed by the source, chain 1 of 2) above
Target sequence in this assay (VL, as listed by the source, chain 2 of 2): as the sequence (VL, as listed by the source, chain 2 of 2) above
Experimental: as §1, §2
In experiment [5] the target is T2, Anti-CD28 Fab (SEQ ID NOs: 696, 697).
T2 construct: In the phage ELISA the Fab was biotinylated and captured on neutravidin coated plates
Kind of experiment: phage ELISA on captured anti-CD28 Fab; competitor: CD28 antigen pre-incubated in the well.
T2 sequence (VH, as listed by the source, chain 1 of 2): as the sequence (VH, as listed by the source, chain 1 of 2) above
T2 sequence (VL, as listed by the source, chain 2 of 2): as the sequence (VL, as listed by the source, chain 2 of 2) above
Experimental: as §1, §2

Experiment [6] has the same target. Kind of experiment: phage ELISA; biotinylated anti-CD28 Fab on neutravidin plate, bound phage detected with anti-M13-HRP.
Target sequence in this assay (VH, as listed by the source, chain 1 of 2): as the sequence (VH, as listed by the source, chain 1 of 2) above
Target sequence in this assay (VL, as listed by the source, chain 2 of 2): as the sequence (VL, as listed by the source, chain 2 of 2) above
Experimental: as §1, §2
The target in experiment [7] is T3, Anti-CD28 Fab (SEQ ID NOs: 696, 697).
T3 construct: In the phage ELISA the Fab was biotinylated and captured on neutravidin coated plates
Kind of experiment: phage binding ELISA; Fab-coated wells pre-incubated with CD28 antigen as competitor, anti-M13 HRP detection.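 Also: crude clonal phage supernatants from panned colonies added to wells after blocking buffer plus CD28 treatment, bound phage measured after a brief incubation and washing.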
Experimental: as §1, §2

For experiment [8] the target is unchanged. Kind of experiment: phage binding ELISA; biotinylated anti-CD28 Fab on neutravidin plate, clonal phage supernatant, anti-M13 HRP detection.

B1: Phage-908 (peptide)
peptide: YCDGHSREYMSKCL
notes: Peptide-87 library clone, tested as clonal phage supernatant with the peptide fused to the pIII filament of the bacteriophage
For the molecule B1, the “Anti-CD28 Fab signal in the presence of CD28 (phage binding ELISA)” value in experiment [1] is 0.1. Further, the “Anti-CD28 Fab signal (phage binding ELISA)” value in experiment [2] was 1.67.

B2: Phage-916 (peptide)
peptide: YCEGHLSQYMSKCL
notes: as for B1
For B2, the “Anti-CD28 Fab signal in the presence of CD28 (phage binding ELISA)” value in experiment [1] turned out to be 0.07. For the same molecule, the “Anti-CD28 Fab signal (phage binding ELISA)” value in experiment [2] was found to be 1.66.

B3: Phage-913 (peptide)
peptide: YCDGHIGLYLNKCL
notes: as for B1
Consider B3, for which, in experiment [1], the “Anti-CD28 Fab signal in the presence of CD28 (phage binding ELISA)” value turned out to be 0.06. For the same molecule, in experiment [2], the “Anti-CD28 Fab signal (phage binding ELISA)” value worked out at 1.66.

B4: Phage-897 (Peptide-87 library clone, YCEGHKPEYMQKCL) (peptide)
peptide: YCEGHKPEYMQKCL
notes: Tested as clonal phage supernatant
Regarding B4, in experiment [3], the “Phage binding ELISA, Anti-CD28 Fab signal in the presence of CD28” value is 0.06. Further, the “Phage binding ELISA, Anti-CD28 Fab signal” value in experiment [4] stood at 1.69.

B5: Phage-909 (peptide)
peptide: YCDGHAAEYMAKCV
notes: as for B1
On to B5, for which the “Anti-CD28 Fab signal in the presence of CD28 (phage binding ELISA)” value in experiment [1] turned out to be 0.07. Moreover, the “Anti-CD28 Fab signal (phage binding ELISA)” value in experiment [2] was 1.67.

B6: Phage-894 (Peptide-87 library clone, YCDGHLPVYLEKCL) (peptide)
peptide: YCDGHLPVYLEKCL
notes: as for B4
With B6, the “Phage binding ELISA, Anti-CD28 Fab signal in the presence of CD28” value in experiment [3] turned out to be 0.06. The “Phage binding ELISA, Anti-CD28 Fab signal” value in experiment [4] was found to be 1.69.

B7: Phage-902 (Peptide-87 library clone, YCDGHAKEYMDKCL) (peptide)
peptide: YCDGHAKEYMDKCL
notes: as for B4
Consider B7, for which the “Phage binding ELISA, Anti-CD28 Fab signal in the presence of CD28” value in experiment [3] was determined as 0.08. Also, in experiment [4], the “Phage binding ELISA, Anti-CD28 Fab signal” value came to 1.68.

B8: Phage-914 (peptide)
peptide: YCEGHLPMYMIKCL
notes: as for B1
Consider B8, for which the “Anti-CD28 Fab signal in the presence of CD28 (phage binding ELISA)” value in experiment [1] stood at 0.09. Also, the “Anti-CD28 Fab signal (phage binding ELISA)” value in experiment [2] is 1.66.

B9: Phage-905 (peptide)
peptide: YCDGHSWQYISKCL
notes: as for B1
With B9, the “Anti-CD28 Fab signal in the presence of CD28 (phage binding ELISA)” value in experiment [1] stood at 0.05. The “Anti-CD28 Fab signal (phage binding ELISA)” value in experiment [2] was 1.67.

B10: Phage-906 (peptide)
peptide: YCEGHAPQYMNKCL
notes: as for B1
With B10, in experiment [1], the “Anti-CD28 Fab signal in the presence of CD28 (phage binding ELISA)” value was determined as 0.08. In addition, the “Anti-CD28 Fab signal (phage binding ELISA)” value in experiment [2] was 1.67.

B11: Phage-911 (peptide)
peptide: YCEGHAPQYMTKCL
notes: as for B1
For B11, the “Anti-CD28 Fab signal in the presence of CD28 (phage binding ELISA)” value in experiment [1] stood at 0.08. In addition, in experiment [2], the “Anti-CD28 Fab signal (phage binding ELISA)” value is 1.67.

B12: Phage-890 (peptide)
peptide: YCEGHLPQYFMKCL
modifications: cysteine pairing not given here; also: fused to phage pIII
notes: not shown: pIII filament protein of the bacteriophage to which the peptide is fused
Regarding B12, the “Anti-CD28 Fab signal in the presence of CD28” value in experiment [5] is 0.07. For the same molecule, the “Anti-CD28 Fab signal (phage binding ELISA)” value in experiment [6] was found to be 1.7.

B13: Phage-901 (Peptide-87 library clone, YCDGHSEQYMSKCL) (peptide)
peptide: YCDGHSEQYMSKCL
notes: as for B4
For B13, the “Phage binding ELISA, Anti-CD28 Fab signal in the presence of CD28” value in experiment [3] is 0.07. In addition, the “Phage binding ELISA, Anti-CD28 Fab signal” value in experiment [4] came out at 1.68.

B14: Phage-915 (peptide)
peptide: YCEGHLPQYMRPCL
notes: as for B1
Regarding B14, the “Anti-CD28 Fab signal in the presence of CD28 (phage binding ELISA)” value in experiment [1] was 0.08. The “Anti-CD28 Fab signal (phage binding ELISA)” value in experiment [2] turned out to be 1.66.

B15: Phage-900 (Peptide-87 library clone, YCDGHSPAYIWKCL) (peptide)
peptide: YCDGHSPAYIWKCL
notes: as for B4
Take B15: the “Phage binding ELISA, Anti-CD28 Fab signal in the presence of CD28” value in experiment [3] is 0.08. The “Phage binding ELISA, Anti-CD28 Fab signal” value in experiment [4] is 1.68.

B16: Phage-893 (Peptide-87 library clone, YCEGHSAEYMQKCL) (peptide)
peptide: YCEGHSAEYMQKCL
notes: as for B4
B16: in experiment [3], the “Phage binding ELISA, Anti-CD28 Fab signal in the presence of CD28” value came out at 0.29. Moreover, the “Phage binding ELISA, Anti-CD28 Fab signal” value in experiment [4] amounted to 1.7.

B17: Phage-899 (Peptide-87 library clone, YCEGHSPWYMNKCL) (peptide)
peptide: YCEGHSPWYMNKCL
notes: as for B4
Consider B17, for which the “Phage binding ELISA, Anti-CD28 Fab signal in the presence of CD28” value in experiment [3] was 0.06. The “Phage binding ELISA, Anti-CD28 Fab signal” value in experiment [4] turned out to be 1.68.

B18: Phage-904 (Peptide-87 library clone, YCDGHSSLYMHKCL) (peptide)
peptide: YCDGHSSLYMHKCL
notes: as for B4
On to B18, for which the “Phage binding ELISA, Anti-CD28 Fab signal in the presence of CD28” value in experiment [3] was determined as 0.07. Moreover, the “Phage binding ELISA, Anti-CD28 Fab signal” value in experiment [4] is 1.67.

B19: Phage-907 (peptide)
peptide: YCDGHAPQWMAKCL
notes: as for B1
Consider B19, for which, in experiment [1], the “Anti-CD28 Fab signal in the presence of CD28 (phage binding ELISA)” value amounted to 0.1. The “Anti-CD28 Fab signal (phage binding ELISA)” value in experiment [2] was found to be 1.67.

B20: Phage-891 (peptide)
peptide: YCDGHSWEYMEKCL
modifications: cysteine pairing not given here; also: fused to phage pIII
notes: as for B12
On to B20, for which the “Anti-CD28 Fab signal in the presence of CD28” value in experiment [5] was determined as 0.12. In addition, the “Anti-CD28 Fab signal (phage binding ELISA)” value in experiment [6] turned out to be 1.7.

B21: Phage-903 (Peptide-87 library clone, YCDGHSTEYMEKCL) (peptide)
peptide: YCDGHSTEYMEKCL
notes: as for B4
Consider B21, for which the “Phage binding ELISA, Anti-CD28 Fab signal in the presence of CD28” value in experiment [3] is 0.08. The “Phage binding ELISA, Anti-CD28 Fab signal” value in experiment [4] is 1.68.

B22: Phage-898 (Peptide-87 library clone, YCDGHAWEYMTKCL) (peptide)
peptide: YCDGHAWEYMTKCL
notes: as for B4
As for B22, the “Phage binding ELISA, Anti-CD28 Fab signal in the presence of CD28” value in experiment [3] is 0.35. For the same molecule, the “Phage binding ELISA, Anti-CD28 Fab signal” value in experiment [4] amounted to 1.69.

B23: Phage-896 (Peptide-87 library clone, YCDGHAIEYMAKCL) (peptide)
peptide: YCDGHAIEYMAKCL
notes: as for B4
Turning to B23, in experiment [3], the “Phage binding ELISA, Anti-CD28 Fab signal in the presence of CD28” value is 0.08. Besides, the “Phage binding ELISA, Anti-CD28 Fab signal” value in experiment [4] stood at 1.69.

B24: Phage-917 (peptide)
peptide: YCDGHSPEYIGKCL
notes: as for B1
As for B24, the “Anti-CD28 Fab signal in the presence of CD28 (phage binding ELISA)” value in experiment [1] is 0.07. Moreover, the “Anti-CD28 Fab signal (phage binding ELISA)” value in experiment [2] was found to be 1.66.

B25: Phage-912 (peptide)
peptide: YCDGHSADYMAKCL
notes: as for B1
As to B25, in experiment [1], the “Anti-CD28 Fab signal in the presence of CD28 (phage binding ELISA)” value turned out to be 0.07. Besides, the “Anti-CD28 Fab signal (phage binding ELISA)” value in experiment [2] was determined as 1.67.

B26: Phage-889 (peptide)
peptide: YCEGHAQEYMSKCL
modifications: cysteine pairing not given here; also: fused to phage pIII
notes: as for B12
Consider B26, for which the “Anti-CD28 Fab signal in the presence of CD28” value in experiment [5] worked out at 0.08. Moreover, the “Anti-CD28 Fab signal (phage binding ELISA)” value in experiment [6] worked out at 1.7.

B27: Phage-895 (Peptide-87 library clone, YCAGHLQEYMQKCL) (peptide)
peptide: YCAGHLQEYMQKCL
notes: as for B4
For B27, the “Phage binding ELISA, Anti-CD28 Fab signal in the presence of CD28” value in experiment [3] was determined as 0.07. Moreover, the “Phage binding ELISA, Anti-CD28 Fab signal” value in experiment [4] turned out to be 1.69.

B28: Phage-918 (Peptide-87 library clone, SEQ ID NO: 1234) (peptide)
peptide: YCAGHLPEFMDKCL
modifications: cysteine pairing not given here; also: fused to phage pIII
notes: Tested as clonal phage supernatant; not shown: fused to the pIII filament protein of the bacteriophage
Take B28: the “Anti-CD28 Fab signal in the presence of CD28 (phage binding ELISA)” value in experiment [7] is 0.06. Also, the “Anti-CD28 Fab signal (phage binding ELISA)” value in experiment [8] came to 1.66.

B29: Phage-910 (peptide)
peptide: YCEGHAQEYMNKCL
notes: as for B1
With B29, the “Anti-CD28 Fab signal in the presence of CD28 (phage binding ELISA)” value in experiment [1] was 0.06. Besides, in experiment [2], the “Anti-CD28 Fab signal (phage binding ELISA)” value worked out at 1.67.

B30: Phage-892 (Peptide-87 library clone, YCAGHSPLYMLKCL) (peptide)
peptide: YCAGHSPLYMLKCL
notes: as for B4
On to B30, for which the “Phage binding ELISA, Anti-CD28 Fab signal in the presence of CD28” value in experiment [3] turned out to be 0.1. Also, the “Phage binding ELISA, Anti-CD28 Fab signal” value in experiment [4] was determined as 1.7.
